From patent publication US20230399409A1 (SHANGHAI HUAOTA BIOPHARMACEUTICAL, published 2023)

Assays:
human IL-36R [1] = target: T1, human IL-36R (human, UniProt Q9HB29 20-575); experiment: cell-based or functional assay
T1 sequence (looked up): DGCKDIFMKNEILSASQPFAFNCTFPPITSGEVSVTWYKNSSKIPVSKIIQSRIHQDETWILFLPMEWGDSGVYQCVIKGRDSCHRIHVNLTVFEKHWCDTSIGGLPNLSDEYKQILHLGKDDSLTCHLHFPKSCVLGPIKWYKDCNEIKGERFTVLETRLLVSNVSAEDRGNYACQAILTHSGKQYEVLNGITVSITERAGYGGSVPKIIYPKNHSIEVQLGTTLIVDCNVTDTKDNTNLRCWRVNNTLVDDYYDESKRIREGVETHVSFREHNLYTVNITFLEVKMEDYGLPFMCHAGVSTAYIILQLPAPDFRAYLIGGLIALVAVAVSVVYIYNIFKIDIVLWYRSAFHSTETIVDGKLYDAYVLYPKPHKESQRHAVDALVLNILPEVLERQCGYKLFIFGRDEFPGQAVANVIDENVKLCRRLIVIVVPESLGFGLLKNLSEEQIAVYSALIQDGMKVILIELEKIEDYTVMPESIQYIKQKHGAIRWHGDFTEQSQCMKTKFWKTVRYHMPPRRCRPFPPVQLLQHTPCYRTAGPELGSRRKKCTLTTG

human IL-36R [2] = target: T1, human IL-36R; experiment: cell-based or functional assay; remark: listed apart in the source
human IL-36R [3] = target: T1, human IL-36R; experiment: cell-based or functional assay; remark: listed apart in the source
human IL-36R [4] = target: T1, human IL-36R; experiment: cell-based or functional assay; remark: listed apart in the source
human IL-36R [5] = target: T1, human IL-36R; experiment: cell-based or functional assay; remark: listed apart in the source
human IL-36R [6] = target: T1, human IL-36R; experiment: flow cytometry on CHO-K1 cells expressing human IL-36R
monkey IL-36R = target: T2, monkey IL-36R (monkey); experiment: flow cytometry on CHO-K1 cells expressing monkey IL-36R
T2 construct: whole, on cells

[7] = target: T3, His-tagged human IL-1 Rrp2/IL-1 R6 protein (human, UniProt Q9HB29 20-335); experiment: SPR (Biacore 8K), His-tagged antigen captured by anti-His on CM5, antibody as analyte, 1:1 model
T3 construct: Bought reagent; also called Human IL-1 Rrp2/IL-1 R6 Protein, His Tag; ACRO Biosystems IL2-H52H6; not shown: His tag
T3 sequence (looked up): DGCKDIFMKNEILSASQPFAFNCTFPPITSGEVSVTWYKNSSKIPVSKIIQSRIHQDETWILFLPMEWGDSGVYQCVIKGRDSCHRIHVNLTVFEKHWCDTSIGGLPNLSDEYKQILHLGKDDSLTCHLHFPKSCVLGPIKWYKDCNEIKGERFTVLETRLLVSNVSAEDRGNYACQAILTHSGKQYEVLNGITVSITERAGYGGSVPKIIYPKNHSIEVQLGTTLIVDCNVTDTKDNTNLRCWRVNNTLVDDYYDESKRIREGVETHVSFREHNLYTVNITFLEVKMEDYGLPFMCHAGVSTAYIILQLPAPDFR
Protocol: Series S Sensor Chip CM5 was equilibrated for 20-30 min at room temperature, and then fitted in the instrument. Following the instruction manual for His Capture Kit, an anti-His antibody was immobilized onto the Series S Sensor Chip CM5. An HBS-EP+(10×) solution was diluted 10-fold in ultrapure water as the running buffer. An antigen (His-tagged human IL-1 Rrp2/IL-1 R6 protein) was diluted to 1 μg/ml and 10 μL/min using the running buffer, and loaded during 15 sec to capture around 50 RU of antigen. An antibody sample were diluted to 30 nM, 15 nM, 7.5 nM, 3.75 nM, 1.875 nM, 0.9375 nM, and 0.46875 nM using an equilibration buffer; the running buffer was taken as zero concentration; at 30 μL/min, binding and dissociation were allowed to occur for 120 s and 900 s, respectively; and the chip was regenerated with the glycine solution at pH 1.5. The sample was analyzed by a capture-based single-cycle kinetics program; the corresponding analysis program was selected to analyze the data, and it was confirmed that there was no obvious reference binding; and the Kinetics 1:1 binding model was selected for fitting analysis to acquire the kinetic parameters of the sample.

B1: humanized anti-IL-36R antibody 900527 (antibody, V domains shown)
VH: QVQLVQSGAEVKKPGASVKVSCKASGYTFTSSWMHWAKQAPGQGLEWIGEIHPNSAKTNYNQKFQGRVTMTRDTSISTAYMELSRLRSDDTAVYYCARVDYGKPWFAYWGQGTLVTVSS
VL: QIVLTQSPGTLSLSPGERATLSCRASSSVSSSYLHWYQQKPGQAPRLWIYSTSSRATGIPDRFSGSGSGTDFTLTISRLEPEDFATYYCQQFQSSPLTFGQGTKLEIK
notes: IgG1 (human IgG1 L234A/L235A, human kappa); also called HB0034
IC50, GM-CSF release under IL-36 α stimulation (NCI/ADR-RES cells) (human IL-36R [1]): 22 ng/mL
IC50, GM-CSF release under IL-36 β stimulation (NCI/ADR-RES cells) (human IL-36R [1]): 17.4 ng/mL
IC50, GM-CSF release under IL-36 γ stimulation (NCI/ADR-RES cells) (human IL-36R [1]): 19.8 ng/mL
IC50, IL-6 release under IL-36 α stimulation (NCI/ADR-RES cells) (human IL-36R [1]): 15 ng/mL
IC50, IL-6 release under IL-36 β stimulation (NCI/ADR-RES cells) (human IL-36R [1]): 13.9 ng/mL
IC50, IL-6 release under IL-36 γ stimulation (NCI/ADR-RES cells) (human IL-36R [1]): 16.2 ng/mL
IC50, IL-8 release under IL-36 α stimulation (NCI/ADR-RES cells) (human IL-36R [1]): 31.5 ng/mL
IC50, IL-8 release under IL-36 β stimulation (NCI/ADR-RES cells) (human IL-36R [1]): 22.3 ng/mL
IC50, IL-8 release under IL-36 γ stimulation (NCI/ADR-RES cells) (human IL-36R [1]): 19.8 ng/mL
IC50, pNF-κB under IL-36 β stimulation (NCI/ADR-RES cells) (human IL-36R [1]): 71.4 ng/ml
HuIL-6 detected in NCI/ADR-RES under IL-36β stimulation IC50 (human IL-36R [2]): 8.87 ng/mL
HuIL-6 detected in HIF under IL-36α stimulation IC50 (human IL-36R [3]): 0.0479 µg/mL
HuIL-6 detected in HIF under IL-36β stimulation IC50 (human IL-36R [4]): 0.0546 µg/mL
pNFκB detected in HIF under IL-36β stimulation IC50 (human IL-36R [5]): 0.105 µg/mL
EC50 (human IL-36R [6]): 0.062 µg/mL
EC50 (monkey IL-36R): 0.0595 µg/mL
Kd [7]: 0.0452 nM
koff [7]: 4.37e-05 s⁻¹
kon [7]: 967000 M⁻¹ s⁻¹

B2: humanized anti-IL-36R antibody 900513 (antibody, V domains shown)
VH: QVQLVQSGAEVKKPGASVKVSCKASGYTFTSSWMHWAKQAPGQGLEWIGEIHPNSAKTNYNQKFQGRVTMTRDTSISTAYMELSRLRSDDTAVYYCARVDYGKPWFAYWGQGTLVTVSS
VL: EIVLTQSPGTLSLSPGERATLSCSASSSVSSSYLHWYQQKPGQAPRLWIYSTSNRATGIPDRFSGSGSGTDFTLTISRLEPEDFATYYCQQFQSSPLTFGQGTKLEIK
notes: IgG1; built from the chimeric expression plasmids (human IgG1 L234A/L235A, human kappa)
IC50, GM-CSF release under IL-36 α stimulation (NCI/ADR-RES cells) (human IL-36R [1]): 20.6 ng/mL
IC50, GM-CSF release under IL-36 β stimulation (NCI/ADR-RES cells) (human IL-36R [1]): 18.4 ng/mL
IC50, GM-CSF release under IL-36 γ stimulation (NCI/ADR-RES cells) (human IL-36R [1]): 17.9 ng/mL
IC50, IL-6 release under IL-36 α stimulation (NCI/ADR-RES cells) (human IL-36R [1]): 12.4 ng/mL
IC50, IL-6 release under IL-36 β stimulation (NCI/ADR-RES cells) (human IL-36R [1]): 22.3 ng/mL
IC50, IL-6 release under IL-36 γ stimulation (NCI/ADR-RES cells) (human IL-36R [1]): 12.1 ng/mL
IC50, IL-8 release under IL-36 α stimulation (NCI/ADR-RES cells) (human IL-36R [1]): 39.8 ng/mL
IC50, IL-8 release under IL-36 β stimulation (NCI/ADR-RES cells) (human IL-36R [1]): 22.1 ng/mL
IC50, IL-8 release under IL-36 γ stimulation (NCI/ADR-RES cells) (human IL-36R [1]): 18 ng/mL
IC50, pNF-κB under IL-36 β stimulation (NCI/ADR-RES cells) (human IL-36R [1]): 105 ng/ml
Kd [7]: 0.0148 nM
koff [7]: 1.34e-05 s⁻¹
kon [7]: 904000 M⁻¹ s⁻¹

B3: humanized anti-IL-36R antibody 900534 (antibody, V domains shown)
VH: QVQLVQSGAEVKKPGASVKVSCKASGYTFTSSWMHWAKQAPGQGLEWIGEIHPNSAKTNYNQKFQGRVTMTRDTSISTAYMELSRLRSDDTAVYYCARVDYGKPWFAYWGQGTLVTVSS
VL: QIVLTQSPGTLSLSPGERATLSCRASSSVSSSYLHWYQQKPGQAPRLLIYSTSSRATGIPDRFSGSGSGTDFTLTISRLEPEDFATYYCQQFQSSPLTFGQGTKLEIK
notes: IgG1 (human IgG1 L234A/L235A, human kappa)
IC50, GM-CSF release under IL-36 α stimulation (NCI/ADR-RES cells) (human IL-36R [1]): 20.2 ng/mL
IC50, GM-CSF release under IL-36 β stimulation (NCI/ADR-RES cells) (human IL-36R [1]): 18.6 ng/mL
IC50, GM-CSF release under IL-36 γ stimulation (NCI/ADR-RES cells) (human IL-36R [1]): 21 ng/mL
IC50, IL-6 release under IL-36 α stimulation (NCI/ADR-RES cells) (human IL-36R [1]): 21.6 ng/mL
IC50, IL-6 release under IL-36 β stimulation (NCI/ADR-RES cells) (human IL-36R [1]): 16.8 ng/mL
IC50, IL-6 release under IL-36 γ stimulation (NCI/ADR-RES cells) (human IL-36R [1]): 17.6 ng/mL
IC50, IL-8 release under IL-36 α stimulation (NCI/ADR-RES cells) (human IL-36R [1]): 30.4 ng/mL
IC50, IL-8 release under IL-36 β stimulation (NCI/ADR-RES cells) (human IL-36R [1]): 22 ng/mL
IC50, IL-8 release under IL-36 γ stimulation (NCI/ADR-RES cells) (human IL-36R [1]): 17.9 ng/mL
IC50, pNF-κB under IL-36 β stimulation (NCI/ADR-RES cells) (human IL-36R [1]): 64.9 ng/ml
Kd [7]: 0.0579 nM
koff [7]: 5.1e-05 s⁻¹
kon [7]: 881000 M⁻¹ s⁻¹

B4: anti-IL-36R chimeric antibody 900497 (antibody, V domains shown)
VH: QVQLQQTGSVLVRPGTSVKLSCKASGYTFTSSWMHWAKQRPGQGLEWIGEIHPNSAKTNYNEKFKGKATLTVDTFSSTAYVDLSSLASEDSAVYYCARVDYGKPWFAYWGQGTLVTVSA
VL: QIVLTQSPTIMSASPGERVTMTCSASSSVSSSYLHWYQQKPGSSPKLWIYSTSNLASGVPARFSGSGSGTSYSLTINSMEAEDAATYYCQQFQSSPLTFGAGTKLGLK
notes: Human-mouse chimera: human IgG1 heavy-chain constant region with L234A and L235A (Eu numbering), human kappa constant region
IC50, GM-CSF release under IL-36 α stimulation (NCI/ADR-RES cells) (human IL-36R [1]): 32.8 ng/mL
IC50, GM-CSF release under IL-36 β stimulation (NCI/ADR-RES cells) (human IL-36R [1]): 22.4 ng/mL
IC50, GM-CSF release under IL-36 γ stimulation (NCI/ADR-RES cells) (human IL-36R [1]): 28.8 ng/mL
IC50, IL-6 release under IL-36 α stimulation (NCI/ADR-RES cells) (human IL-36R [1]): 33.2 ng/mL
IC50, IL-6 release under IL-36 β stimulation (NCI/ADR-RES cells) (human IL-36R [1]): 20.4 ng/mL
IC50, IL-6 release under IL-36 γ stimulation (NCI/ADR-RES cells) (human IL-36R [1]): 19.8 ng/mL
IC50, IL-8 release under IL-36 α stimulation (NCI/ADR-RES cells) (human IL-36R [1]): 43.9 ng/mL
IC50, IL-8 release under IL-36 β stimulation (NCI/ADR-RES cells) (human IL-36R [1]): 29.2 ng/mL
IC50, IL-8 release under IL-36 γ stimulation (NCI/ADR-RES cells) (human IL-36R [1]): 28.4 ng/mL
IC50, pNF-κB under IL-36 β stimulation (NCI/ADR-RES cells) (human IL-36R [1]): 115 ng/ml
HuIL-6 detected in HIF under IL-36α stimulation IC50 (human IL-36R [3]): 0.146 µg/mL
HuIL-6 detected in HIF under IL-36β stimulation IC50 (human IL-36R [4]): 0.0837 µg/mL
pNFκB detected in HIF under IL-36β stimulation IC50 (human IL-36R [5]): 0.1 µg/mL
Kd [7]: 0.0254 nM
koff [7]: 1.68e-05 s⁻¹
kon [7]: 660000 M⁻¹ s⁻¹
